Test results: patent US20150111814A1

Molecular target: HIV-1 BaL envelope protein spike (Env) on virions (HIV-1 BaL strain)
Assay: cell-based or functional assay

Substance	IC50, p24 leakage from fully infectious HIV-1 BaL (ELISA) [nM]
DAVEI 4 (Dual Acting Virucidal Entry Inhibitor; cyanovirin-N-(Gly4Ser)4-His6-MPER fusion)	200
DAVEI 8 (Dual Acting Virucidal Entry Inhibitor; cyanovirin-N-(Gly4Ser)8-His6-MPER fusion)	395
